The supplement of paper PMC9170038

Tested on: K4 kissing-loop RNA reporter
Test: apparent KD of K4 kissing-loop reporter; higher = weaker reporter binding
Conditions: Eterna round: R107
Description: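 RNA-MaP round R107: designed RNA switches with theophylline, tryptophan, arginine or FMN aptamers are transcribed on-chip within common flanks. They are titrated with a labelled K4 kissing-loop RNA reporter in RNA-MaP buffer (100 mM Tris pH 7.5, 80 mM KCl, 4 mM MgCl2), without ligand or with the indicated ligand. Median apparent KD per design.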

[1] = input ligand: theophylline 20 uM
[2] = input ligand: tryptophan 2.4 mM
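Further: bound reporter read as fluorescence of individual clusters on recovered sequencing chips by microscopy, with normalized cluster intensities fitted with a binding model.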

Sequence | apparent KD of K4 kissing-loop reporter (input ligand: FMN 200 uM) [nM] | apparent KD of K4 kissing-loop reporter (input ligand: arginine 13.2 mM) [nM] | apparent KD of K4 kissing-loop reporter (input ligand: none) [nM] | apparent KD of K4 kissing-loop reporter [1] [nM] | apparent KD of K4 kissing-loop reporter [2] [nM]
UUACAGCCCAGUGAUGUUGGGUAGCGGCGGCGAGGACCGGUACGGCCGCCACUCGGCGCACAGGCGGAGUGAUGUUUUGCUUAAA [Same State Tryptophan A GF 11] | 718 | 590 | 894 | 927 | 476
UACUAUAGUGAUGUUAUAGAUAAAACAGAUACCAGUGUAACAUAACACCCUUGGCAGCUGAUAAGGGAAAGUAUAAAUGUGUAUU [AstrosSSTHe-A#2newdesignED] | 207 | 188 | 199 | 208 | 186
UCGGCAAAGUCGGCCGCCACUCCGGGCCCUAUAAAUGGGCGCAGUGAUGUUGCGGCUAGGCCUCUGAGGACCGGGACUUUGUAAA [Atordied] | 185 | 63.1 | 54.5 | 61.7 | 219
ACAUUAGCGAGUGAUGUUCGCUAAGACGAAGGAGCGCUCGCGAGAGCAGGUAGGUCGCGUCUAGUGUCACUGUACUAAAUAGUGA [Arg A SS t12] | 159 | 164 | 180 | 183 | 169
AGUUUAGAGUGACUCGAUAAGAGUCACAAACGAGGACCGGUACGGCCGCCACUCGAAAUAACGAGAGUGAUGUUCUCGCUGGGCA [FiskerMod 3 - Jieux - Same State Tryptophan A] | 332 | 377 | 458 | 384 | 126
GAUGGUGGCAGUGAAGUGAUGUUUCAUGAUACCAGUUUUAUAAGUAACCCUUGGCAGCAUCGUACGCAGCGUAGUGGACAUCACG [theeternabot_exclusion_KL_Theo_A_25] | 129 | 128 | 140 | 241 | 149
AGUGAUGUGGGAAGGAGCGGUAUAUGAGUUCAGUGAUGUUGAAGUGAUGCUGUAGUGAUGUGCCAGGUAGGUCGCCUAGAUGUUA [whbob_Ex_Arginine_B_2th165] | 374 | 217 | 395 | 194 | 290
UGUCAUGGAAACAUGAACGUUAAAAUAAAUCGAGGACCGGUACGGCCGCCACUCGUAUAGCGGUCAGUGAUGUUGACUGUAGUAC [KL-SSTryp-A form2 sub11 #dotplot2>1] | 107 | 110 | 109 | 109 | 101
CAUACGCAUGGAGGAUAUGAGAUUUCUCAUAUUAUUUAAUAUUCUCAGUGAUGUUGAGAAUUAAACUCAGAAGGCCAUGUGUAUG [Ex FMN B 4] | 296 | 149 | 164 | 181 | 163
AGUGACGUCGCGGCCGCCACUGAAAUGACAGUGAUGUUGUCAAAAGAAAGUGAUGUUAAGAAAUGCAGGACCGGGUGAUAGAAAA [semi-accidental] | 223 | 144 | 158 | 143 | 125
AUAAUUAUAUAGAAAUAUAUAAUUAUAUAACGAGGACCGGUACGGCCGCCACUCGUGCCGGGCAUAAAAUGAGUGAUGUUCAUGU [KL-XTryp-A7 #analogue] | 205 | 228 | 212 | 193 | 198
AAAUAUUCGAGUGAUGUUCGAAUAAUAUCAGAGGAUAUGCAUAAAAGCAGAAGGCUGUAUUACUUUUUGUUACGAAAUUUUAUAA [JR_SSFMNA_Sub020] | 111 | 115 | 102 | 118 | 115
GUUGUAUACUGAAGGAGCGAGUAGUGGAAACAUAAACUCAUUGCGAGUGAUGUUCGCGGUACUCAGGUAGGUCGCGGUAAUCGUA [Exclusion Arginine B Gf 11] | 820 | 328 | 800 | 485 | 403
UGUCAUUGGUCGGCCGCCACUUCAAGGUCAAAGACCAGAGUGAUGUUCUUGCACAAAGUGCUUAGAAGGACCGGGACCGAUGACU [TrypBS 13 #SwitchBubble #K4Middle] | 738 | 467 | 625 | 413 | 622
UGAACUGUCUGCGAUACCAGCUAAGGAGUGAUGUUCCGGCUCGACGAAACGUCGAGCCAUAGCCCUUGGCAGCGCAGACAGUUCA [#28 K4 Theophylline B Same State] | 387 | 160 | 334 | 721 | 272
CCGGGCGGCCGAAGGAGCGGGCGGGCCCGAGUGAUGUUCGGGUGGACCGUGAGGUCCGGUGCCCAGGUAGGUCGCGGUUCCGCCC [#2 Same State - Arginine B Attempt #7 (HarryS)] | 156 | 123 | 157 | 115 | 134
AAAUAGCAGCAACGAGUGAUGUUCGACGAUACCAGCCUCGAUAGAGGCCCUUGGCAGCGUAAAUGAUCACAAAGCCAAGGGCUGC [#SwitchBubble 2] | 382 | 372 | 458 | 453 | 397
UACAUAUUAUUAUUUCUACAUUUAUUUAGUCAGGAUAUCGAUUAAACGAGAAGGGACAAUAUCAAGUGAUGUUUGAUAAUUCAAA [JR_SSFMNA_Sub022] | 85.3 | 123 | 81.6 | 118 | 60
UAAAUAAUAAAACGAGUGAUGUUCGACGAUACCAGCCUCGAUAGAGGCCCUUGGCAGCGUAAAUGAUCACAAAGCCAAGGUAUAA [#01 K4 Theophylline A Exclusion] | 165 | 183 | 159 | 199 | 138
UGUCAUUGGUCGGCCGCCACUUCGUAUGAAGUGAUGUUUUGUAGAUUGUGUUGAAAGGUAUGGUGAAGGACCGGGACCGAUGACU [FiskerMod 22 - Jieux - Same State - Tryptophan B] | 516 | 266 | 765 | 203 | 508
AGUCUGUAUGACAUAAGUGAUGUUUAUGUUCGAGGACCGGUACGGCCGCCACUCGCAAAUGUAUGAUUUCACGUUUGUGCAAGUA [KL-XTryp-A #analogue] | 196 | 183 | 207 | 220 | 292

Sequence | apparent KD of K4 kissing-loop reporter (input ligand: FMN 200 uM) [nM] | apparent KD of K4 kissing-loop reporter (input ligand: arginine 13.2 mM) [nM] | apparent KD of K4 kissing-loop reporter (input ligand: none) [nM] | apparent KD of K4 kissing-loop reporter [1] [nM] | apparent KD of K4 kissing-loop reporter [2] [nM]
UCCUGCAAUCGACCACGAAAGUGGAUGGAUACCAGAGUCGAAAGACUCCCUUGGCAGCCAGUGAUGUUGGAAGCAGGUAAAUAAA [#SwitchBubble 17 #K4Late] | 364 | 359 | 445 | 288 | 406
AAUUUAUUAACUGAUACCAGACUUAAUUAAUUGUAAAUUACUAGUGAUGUUAGUGAUUCUGUCCCUUGGCAGCAGUAUUUAUUAA [JR_ExcTheophyB_Sub011] | 98.3 | 120 | 113 | 139 | 92.5
GAUGUUUGCCGAAGGAGCGAGUAUUCGCCAGUGAUGUUGGUGAGAUAUACACGUAUCAGUGCUCAGGUAGGUCGCGGCGCUUGUU [Same State Arginine B GF 27] | 123 | 107 | 129 | 135 | 117
UGGUUAAGCAGUGAUGUUGCAAGUGAUGAUACCAGUUAAGAAGAGAACCCUUGGCAGCAUAAAGUGCGCUCUGAUGAGUGUGCUU [whbob_SS_Theo_A_w55] | 165 | 130 | 146 | 176 | 165
UGUUAUGUAUCAGGAUAUUAGUGAUGUUUGUUUAUGUUAGUGAUGUUGAUAUUUGUUUUAUGUAUUUAAGAAGGGAUUGAGAUGU [dcdmullin] | 55.4 | 19.8 | 45.1 | 27.7 | 50.9
UAAUAAAUUCCAGCUAUAUCACUCUUCGAAGGAGCGGACGAAAGUCCAGGUAGGUCGCGAAGAGUGAUGUUCUUUGCGGCGCUGG [Omei KL Arginine A Exc A v5] | 94.1 | 60.8 | 75.4 | 132 | 111
UUAUAUUUUAUAUUUAGUAGAGCUCUAGCUCGAGGACCGGUACGGCCGCCACUCGAGUGAUGUUCGAGUGGAAGAGCUCUACAUU [AK3.1 EXC Tryptophan A] | 114 | 99.9 | 110 | 98.2 | 435
GGUUGAAGCACCCGGAGUGAUGUUCCGGAUACCAGCAAACCAACUUGCCCUUGGCAGCCGUAUAGCGUCCGGUGGGCCGAGCAUA [Beisadi] | 101 | 90.3 | 97 | 99.3 | 90
AUAAACUUGCAGUGAUGUUGCAAGUAAGACUAGGAUAUCAGGAAACUGAGAAGGAGUCAUCUCCUUCACUUGCAACUAGGAGGAG [[K1]-[K2]-[F1]-[F2]-[F]'-[K]'-[F]''_Design6] | 122 | 93.4 | 143 | 144 | 133
UUUUUGGAGAAUUAUAGUGAUGUUAUGAAGGAGGAUAUCUGGAGAUGGAGAAGGCCUAGUGGCUCAGCCCUGGAGGGUGGGUGGG [ExFMNA.aB] | 822 | 562 | 705 | 556 | 572
AGUGAUGUUGUGUUAUGCAAGGGAAGUGAUCGAGGACCGGUACGGCCGCCACUCGAGUGAUGAGUGAGUGAUGUUUGUUUAGGGA [ffgmullin] | 1180 | 451 | 933 | 883 | 401
AUUUUGGUUUAGAGUGAUGUUCCUUGUGUUCGAGGACCGGUACGGCCGCCACUCGGGUAGAAAAGAAAAGAAAUGUUUGAUUUUU [BDazzled - #10 SS Tryptophan A] | 251 | 105 | 548 | 92.8 | 123
GCGGCCCAGCCGGAUACCAGUGACCCGCUGGGAACCGCGGGCCCAGAGUGAUGUUCGGGACACCCUUGGCAGCCGCCUGGGACGC [#2 Same State - Theophylline B Attempt #17 (HarryS)] | 588 | 126 | 546 | 334 | 193
UCUGUUGUAUAUGAUACCAGCAGUGAGAGAUGAGAAGUAUAGUGAUGUUAUAUGAGUGAAUGCCCUUGGCAGCGUGUGCGUGUGG [SSTheophylB.aD] | 101 | 112 | 94 | 134 | 87.5
GUGAGGAUCCGAAGGAGCGUCCGCAAUCCAGUGAUGUUGGGUGUUGGUUAUAUUUAACGAGGACAGGUAGGUCGCGGAUUUUCAA [Same State Arginie B GF 22] | 202 | 126 | 172 | 193 | 159
UUACUGCCCAGUGAUGUUGGGUAUCGGCGGCGAGGACCGGUACGGCCGCCACUCGGCGCACAGGCGGAGUGAUGUUUCGCUUAAA [Same State Tryptophan A GF 12] | 621 | 539 | 627 | 631 | 186
GGAUCCACCAGUGAUGUUGGAGAAAACUUCAAGGAUAUGACGAAAGUCAGAAGGUGGUAGACUGGGCAAAGUCCGGUCGGAUCCA [FmnA10 U29+G66] | 543 | 228 | 296 | 402 | 274
GCGCAUGUUAAAGGAUAUAGCAGGUGAUACAAGAAAGUGAGUGAUGUUUAUGUAGAUGAUGAUAUGUUAGAAGGUUAACAAGCGC [abcdefghijklmnop] | 693 | 639 | 842 | 788 | 600
CGCAGUGAUGUUGCUUUUAUUCUUGGUUAACGAGGACCGGUACGGCCGCCACUCGAUUUCUAUCUAUUCCAGUGUUUUUUUGAGU [JR_ExcTryptoA_Sub004] | 261 | 374 | 304 | 464 | 195
UUUUUGGUUUAGAGUGAUGUUCCUUGUAAUCGAGGACCGGUACGGCCGCCACUCGAUUAGAAAAGAAAAGAAAAGAGUGAUGUUU [BDazzled - #2 SS Tryptophan A] | 347 | 229 | 299 | 248 | 243
CCUAUCUCAUACGAUACCAGUCUACGAUAUUUUAUCGUUGCCAUCACCGAGUGAUGUUCGGACCCUUGGCAGCGUAUGGGAUAGG [Ex Theophylline B K4 5] | 340 | 277 | 355 | 544 | 346
